In patent publication US20260242419A1, “A CYCLIC PEPTIDE FOR TRAPPING INTERLEUKIN-1 BETA” (Merck Sharp & Dohme LLC, priority 2023, published 2026):
Starred links: 1 amine or outer side, 2 acyl side, 3 side chain; linkers in the order of their positions; H or OH if unused. Non-standard residues stand in square brackets, D forms with d. AlaPyrim4CONH2 = (2S)-2-amino-3-(2-carbamoylpyrimidin-5-yl)propanoic acid, NC(=O)c1ncc(C[C@H](N[*:1])C(=O)[*:2])cn1; SbOH4Pal = (2S,3S)-2-amino-3-hydroxy-3-(4-pyridyl)propanoic acid, O=C([C@@H](N[*:1])[C@@H](O[*:3])c1ccncc1)[*:2]; sbOH4Pal = (2S,3S)-2-amino-3-hydroxy-3-(4-pyridyl)propanoic acid, O=C([C@@H](N[*:1])[C@@H](O[*:3])c1ccncc1)[*:2]; RbOH4Pal = (2S,3R)-2-amino-3-hydroxy-3-(4-pyridyl)propanoic acid, O=C([C@@H](N[*:1])[C@H](O[*:3])c1ccncc1)[*:2]; AlaPiperazAc = (S)-3-(4-acetylpiperazin-1-yl)-2-aminopropanoic acid, CC(=O)N1CCN(C[C@H](N[*:1])C(=O)[*:2])CC1; daMeSMe = (2R)-2-amino-3-methoxy-2-methyl-propanoic acid, COC[C@@](C)(N[*:1])C(=O)[*:2]; alTOMe = (2S,3S)-2-amino-3-methoxy-butanoic acid, CO[C@@H](C)[C@H](N[*:1])C(=O)[*:2]; ThrOMe = (2S,3R)-2-amino-3-methoxy-butanoic acid, CO[C@H](C)[C@H](N[*:1])C(=O)[*:2]; Ala(2-carboxypyrimidin-5-yl) = N[C@@H](Cc1cnc(C(=O)O)nc1)C(=O)O; dPro(4R-(4-pyridylmethyl)) = O=C(O)[C@H]1C[C@@H](Cc2ccncc2)CN1; Trp(βS-Me,4-F) = C[C@@H](c1c[nH]c2cccc(F)c12)[C@H](N)C(=O)O; Bip(4'-COOH) = N[C@@H](Cc1ccc(-c2ccc(C(=O)O)cc2)cc1)C(=O)O; dPro(4R-Bzl(4-F)) = O=C(O)[C@H]1C[C@@H](Cc2ccc(F)cc2)CN1; dPro(3S-(4-F-Bn)) = O=C(O)[C@@H]1NCC[C@@H]1Cc1ccc(F)cc1; Trp(4-Cl) = N[C@@H](Cc1c[nH]c2cccc(Cl)c12)C(=O)O; Ala(pyrimidin-5-yl) = N[C@@H](Cc1cncnc1)C(=O)O; Phe(4-COOH) = N[C@@H](Cc1ccc(C(=O)O)cc1)C(=O)O; Trp(4-F) = N[C@@H](Cc1c[nH]c2cccc(F)c12)C(=O)O; Bip = N[C@@H](Cc1ccc(-c2ccccc2)cc1)C(=O)O; Pro(cis-4-F) = O=C(O)[C@@H]1C[C@H](F)CN1; Met(O2) = CS(=O)(=O)CC[C@H](N)C(=O)O; d(αMeF) = C[C@@](N)(Cc1ccccc1)C(=O)O; Dap(CONH2) = NC(=O)NC[C@H](N)C(=O)O; hTyr = N[C@@H](CCc1ccc(O)cc1)C(=O)O; cisHyp = O=C(O)[C@@H]1C[C@H](O)CN1; d(αMeD) = C[C@@](N)(CC(=O)O)C(=O)O; 4Pal = N[C@@H](Cc1ccncc1)C(=O)O; aThr = C[C@H](O)[C@H](N)C(=O)O; NMeDab = CN[C@@H](CCN)C(=O)O; dDab = NCC[C@@H](N)C(=O)O; dDap = NC[C@@H](N)C(=O)O; Dab = NCC[C@H](N)C(=O)O; Nva = CCC[C@H](N)C(=O)O; Aib = CC(C)(N)C(=O)O

Molecular target: Recombinant human IL-1β (BioLegend 579404) (human, UniProt P01584 117-269)
Experiment: cell-based or functional assay

Binder	MRC5 IC50 [pM]
cyclo([Bip][4Pal][Phe(4-COOH)]G[cisHyp][Trp(βS-Me,4-F)][Aib]SW[d(αMeD)][Ala(pyrimidin-5-yl)]Q[Dab]G[dPro(4R-(4-pyridylmethyl))]) (ring closure inferred) [SEQ ID NO 264]	17
cyclo([Bip(4'-COOH)][4Pal][Phe(4-COOH)]G[Pro(cis-4-F)][Trp(βS-Me,4-F)][Aib]SW[d(αMeF)]DQ[Dab]G[dPro(4R-(4-pyridylmethyl))]) (ring closure inferred) [SEQ ID NO 259]	14
cyclo([Bip(4'-COOH)][4Pal][Phe(4-COOH)]G[Pro(cis-4-F)][Trp(βS-Me,4-F)][Aib]SW[d(αMeD)][ThrOMe]Q[Dab]G[dPro(4R-(4-pyridylmethyl))]) (ring closure inferred) [SEQ ID NO 255]	11
cyclo([Bip][4Pal][Phe(4-COOH)]G[Pro(cis-4-F)][Trp(βS-Me,4-F)][Aib]SW[d(αMeD)][dE]Q[Dab]G[dPro(4R-(4-pyridylmethyl))]) (ring closure inferred) [SEQ ID NO 249]	16
cyclo([Bip][4Pal][Phe(4-COOH)]G[Pro(cis-4-F)][Trp(βS-Me,4-F)][Aib]SW[d(αMeD)][dDap]Q[Dap(CONH2)]G[dPro(4R-(4-pyridylmethyl))]) (ring closure inferred) [SEQ ID NO 246]	31
cyclo([Bip(4'-COOH)][4Pal][Phe(4-COOH)]G[Pro(cis-4-F)][Trp(βS-Me,4-F)][Aib]SW[d(αMeF)][aThr]Q[Dab]G[dPro(4R-(4-pyridylmethyl))]) (ring closure inferred) [SEQ ID NO 257]	21
cyclo([Bip(4'-COOH)][4Pal][Phe(4-COOH)]G[Pro(cis-4-F)][Trp(βS-Me,4-F)][Aib]SW[Aib][Ala(2-carboxypyrimidin-5-yl)]Q[Dab]G[dPro(4R-(4-pyridylmethyl))]) (ring closure inferred) [SEQ ID NO 268]	14
cyclo([Bip][4Pal][Phe(4-COOH)]G[Pro(cis-4-F)][Trp(βS-Me,4-F)][Aib]SW[Aib][dE]Q[Dab]G[dPro(4R-(4-pyridylmethyl))]) (ring closure inferred) [SEQ ID NO 250]	27
cyclo([Bip][4Pal][Phe(4-COOH)]G[Pro(cis-4-F)][Trp(βS-Me,4-F)][Aib]SW[Aib][Ala(2-carboxypyrimidin-5-yl)]Q[Dab]G[dPro(4R-(4-pyridylmethyl))]) (ring closure inferred) [SEQ ID NO 269]	14
cyclo([Bip(4'-COOH)][4Pal][Phe(4-COOH)]G[Pro(cis-4-F)][Trp(βS-Me,4-F)][Aib]S[Trp(4-F)][d(αMeD)][Ala(pyrimidin-5-yl)]Q[Dab]G[dPro(4R-(4-pyridylmethyl))]) (ring closure inferred) [SEQ ID NO 252]	13
cyclo([Bip(4'-COOH)][4Pal][Phe(4-COOH)]G[Pro(cis-4-F)][Trp(βS-Me,4-F)][Aib]EW[Aib][AlaPiperazAc]QSG[dPro(4R-Bzl(4-F))]) (ring closure inferred) [SEQ ID NO 271]	23
cyclo([Bip][4Pal][Phe(4-COOH)]G[Pro(cis-4-F)][Trp(βS-Me,4-F)][Aib]SW[d(αMeD)][dDab]Q[Dap(CONH2)]G[dPro(4R-(4-pyridylmethyl))]) (ring closure inferred) [SEQ ID NO 247]	30
cyclo([Bip(4'-COOH)][RbOH4Pal][Phe(4-COOH)]G[Pro(cis-4-F)][Trp(βS-Me,4-F)][Aib]SW[Aib][Ala(pyrimidin-5-yl)]Q[Dab]G[dPro(4R-Bzl(4-F))]) (ring closure inferred) [SEQ ID NO 274]	26
cyclo([Bip(4'-COOH)][4Pal][Phe(4-COOH)]G[Pro(cis-4-F)][Trp(βS-Me,4-F)][Aib]SW[Aib][SbOH4Pal]Q[Dab]G[dPro(4R-Bzl(4-F))]) (ring closure inferred) [SEQ ID NO 272]	18
cyclo([Bip(4'-COOH)][4Pal][Phe(4-COOH)]G[Pro(cis-4-F)][Trp(βS-Me,4-F)][Aib]SW[d(αMeD)][Nva]Q[Dab]G[dPro(4R-(4-pyridylmethyl))]) (ring closure inferred) [SEQ ID NO 253]	13
cyclo([Bip(4'-COOH)][4Pal][Phe(4-COOH)]G[Pro(cis-4-F)][Trp(βS-Me,4-F)][Aib]SW[Aib][RbOH4Pal]Q[Dab]G[dPro(4R-Bzl(4-F))]) (ring closure inferred) [SEQ ID NO 273]	13
cyclo([Bip(4'-COOH)][4Pal][Phe(4-COOH)]G[Pro(cis-4-F)][Trp(βS-Me,4-F)][Aib]SW[Aib][Ala(pyrimidin-5-yl)]Q[Dap(CONH2)]G[dPro(4R-(4-pyridylmethyl))]) (ring closure inferred) [SEQ ID NO 270]	23
cyclo([Bip(4'-COOH)][4Pal][Phe(4-COOH)]G[Pro(cis-4-F)][Trp(βS-Me,4-F)][Aib]S[Trp(4-Cl)][d(αMeD)][Ala(pyrimidin-5-yl)]Q[Dab]G[dPro(4R-(4-pyridylmethyl))]) (ring closure inferred) [SEQ ID NO 251]	13
cyclo([Bip(4'-COOH)][4Pal][Phe(4-COOH)]G[Pro(cis-4-F)][Trp(βS-Me,4-F)][Aib]SW[d(αMeD)][sbOH4Pal]Q[Dab]G[dPro(3S-(4-F-Bn))]) (ring closure inferred) [SEQ ID NO 263]	17
cyclo([Bip(4'-COOH)][4Pal][Phe(4-COOH)]G[Pro(cis-4-F)][Trp(βS-Me,4-F)][Aib]SW[d(αMeD)][alTOMe]Q[Dab]G[dPro(4R-(4-pyridylmethyl))]) (ring closure inferred) [SEQ ID NO 254]	13
cyclo([Bip(4'-COOH)][4Pal][Phe(4-COOH)]G[Pro(cis-4-F)][Trp(βS-Me,4-F)][Aib]SW[Aib][Met(O2)]Q[Dab]G[dPro(4R-(4-pyridylmethyl))]) (ring closure inferred) [SEQ ID NO 266]	19
cyclo([Bip(4'-COOH)][4Pal][Phe(4-COOH)]G[Pro(cis-4-F)][Trp(βS-Me,4-F)][Aib]SW[d(αMeF)]EQ[Dab]G[dPro(4R-(4-pyridylmethyl))]) (ring closure inferred) [SEQ ID NO 258]	20
cyclo([Bip][4Pal][Phe(4-COOH)]G[Pro(cis-4-F)][Trp(βS-Me,4-F)][Aib]SW[d(αMeD)][dDab]Q[Dab]G[dPro(4R-(4-pyridylmethyl))]) (ring closure inferred) [SEQ ID NO 248]	28
cyclo([Bip(4'-COOH)][4Pal][Phe(4-COOH)]G[Pro(cis-4-F)][Trp(βS-Me,4-F)][Aib]SW[daMeSMe][aThr]Q[Dab]G[dPro(4R-(4-pyridylmethyl))]) (ring closure inferred) [SEQ ID NO 261]	17
cyclo([Bip(4'-COOH)][4Pal][Phe(4-COOH)]G[Pro(cis-4-F)][Trp(βS-Me,4-F)][Aib]SW[daMeSMe][Ala(pyrimidin-5-yl)]Q[Dab]G[dPro(4R-(4-pyridylmethyl))]) (ring closure inferred) [SEQ ID NO 260]	13
cyclo([Bip][4Pal][Phe(4-COOH)]G[Pro(cis-4-F)][Trp(βS-Me,4-F)][Aib]SW[Aib][dD]Q[Dab]G[dPro(4R-(4-pyridylmethyl))]) (ring closure inferred) [SEQ ID NO 265]	22
cyclo([Bip(4'-COOH)][4Pal][Phe(4-COOH)]G[Pro(cis-4-F)][Trp(βS-Me,4-F)][Aib]SW[d(αMeD)][hTyr]Q[Dab]G[dPro(4R-(4-pyridylmethyl))]) (ring closure inferred) [SEQ ID NO 256]	12
cyclo([Bip(4'-COOH)][4Pal][Phe(4-COOH)]G[Pro(cis-4-F)][Trp(βS-Me,4-F)][Aib]SW[Aib][Ala(pyrimidin-5-yl)]Q[NMeDab]G[dPro(4R-(4-pyridylmethyl))]) (ring closure inferred) [SEQ ID NO 262]	20
cyclo([Bip(4'-COOH)][4Pal][Phe(4-COOH)]G[Pro(cis-4-F)][Trp(βS-Me,4-F)][Aib]SW[Aib][AlaPyrim4CONH2]Q[Dab]G[dPro(4R-(4-pyridylmethyl))]) (ring closure inferred) [SEQ ID NO 267]	14
